Assay results from patent US20250122298A1 (published 2025).

Experiments:
recombinant human TfR-1 = recombinant human TfR-1 (human, UniProt P02786 89-760); test: ELISA
[1] = molecular target: T1, recombinant cynomolgus TfR-1 (cynomolgus, UniProt H9EXL1 89-760); test: ELISA
T1 chain: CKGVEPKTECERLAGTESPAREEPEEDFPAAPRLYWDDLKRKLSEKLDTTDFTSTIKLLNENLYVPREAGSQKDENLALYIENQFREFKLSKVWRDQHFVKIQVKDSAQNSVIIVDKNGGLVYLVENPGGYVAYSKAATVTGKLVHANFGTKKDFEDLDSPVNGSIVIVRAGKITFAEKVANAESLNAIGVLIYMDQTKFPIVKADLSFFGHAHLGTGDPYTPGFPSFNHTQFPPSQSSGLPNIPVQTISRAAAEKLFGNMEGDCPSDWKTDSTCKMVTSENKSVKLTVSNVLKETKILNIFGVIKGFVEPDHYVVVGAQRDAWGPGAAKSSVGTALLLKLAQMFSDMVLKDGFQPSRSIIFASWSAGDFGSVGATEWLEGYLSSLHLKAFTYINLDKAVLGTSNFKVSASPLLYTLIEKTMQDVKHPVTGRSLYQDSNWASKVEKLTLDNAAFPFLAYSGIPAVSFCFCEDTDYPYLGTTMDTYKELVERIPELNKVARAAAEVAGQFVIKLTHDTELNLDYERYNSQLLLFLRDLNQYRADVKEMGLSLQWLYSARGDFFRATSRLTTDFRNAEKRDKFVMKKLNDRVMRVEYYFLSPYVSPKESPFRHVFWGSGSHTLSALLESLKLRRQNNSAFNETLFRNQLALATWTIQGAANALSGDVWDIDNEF

EC50 (recombinant human TfR-1): 4.1 nM
EC50 [1]: 3 nM
B1: R2D4 (Fc fusion)
chain: ARVDQTPQTATKETGESLTINCVLRDSNCALSSTYWYRKKSGSTNEENISKGGRKYVETVESGSKSFSLKINDLTVEDSGTYRCNVVGTWCMSWRDVSGDGTVVTVNA
